T1: human BCMA on cells (CHO-hBCMA clone 2C2; NCI-H929; RPMI-8226) (human, UniProt Q02223 1-184)
T1 sequence (looked up): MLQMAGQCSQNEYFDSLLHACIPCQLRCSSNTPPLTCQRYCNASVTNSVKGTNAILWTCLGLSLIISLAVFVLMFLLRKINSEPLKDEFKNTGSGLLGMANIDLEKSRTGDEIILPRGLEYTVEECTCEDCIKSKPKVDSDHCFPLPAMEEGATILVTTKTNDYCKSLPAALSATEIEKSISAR


Assays:
[1] = molecular target: T1, human BCMA on cells (CHO-hBCMA clone …); assay: cell-based or functional assay
[2] = molecular target: human CD3 on T cells (Jurkat cells; human peripheral blood CD4+ and CD8+ T cells) (human, UniProt P07766 23-207); assay: cell-based or functional assay
Wherever Upregulation of CD25 (%), CD4+T is given: test concentration or dose not given here.
Wherever Upregulation of CD25 (%), CD8+T is given: test concentration or dose not given here.
Wherever Upregulation of CD69 (%), CD4+T is given: test concentration or dose not given here.
Wherever Upregulation of CD69 (%), CD8+T is given: test concentration or dose not given here.

human CD3 on T cells (Jurkat cells; human peripheral blood CD4+ and CD8+ T cells), sequence (P07766 23-207): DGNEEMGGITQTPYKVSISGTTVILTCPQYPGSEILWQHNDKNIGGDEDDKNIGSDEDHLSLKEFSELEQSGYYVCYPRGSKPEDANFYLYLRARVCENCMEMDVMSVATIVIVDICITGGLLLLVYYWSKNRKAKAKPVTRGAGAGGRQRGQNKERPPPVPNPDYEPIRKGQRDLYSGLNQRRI

Binder	Killing EC50 (TDCC, LDH release; PBMC + RPMI-8226) [1] [nM]	Upregulation of CD25 (%), CD4+T [2] [%]	Upregulation of CD25 (%), CD8+T [2] [%]	Upregulation of CD25 EC50, CD4+T [2] [nM]	Upregulation of CD25 EC50, CD8+T [2] [nM]	Upregulation of CD69 (%), CD4+T [2] [%]	Upregulation of CD69 (%), CD8+T [2] [%]	Upregulation of CD69 EC50, CD4+T [2] [nM]	Upregulation of CD69 EC50, CD8+T [2] [nM]
h38D9-CD3 (bispecific antibody, V domains shown) VH 1: QVQLVQSGSELKKPGASVKVSCKASGYIFTNFGMNWVREAPGQGLEWMGWINTYTGEQIYADDFKGRFAFSLDTSASTAYLQISSLKAEDTAVYFCARGEIYYGYDVGFVYWGQGTLVTVSS VL 1: DIVLTQSPASLAVSPGQRATITCRASKSVSTSGYSYMHWYQKKPGQPPKLLIYLGSDLESGVPARFSGSGSGTDFTLTINPVEANDTANYYCQHSRELPWTFGQGTKVEIK VH 2: EVQLVESGGGLVQPGGSLRLSCAASGFTFNTYAMNWVRKAPGKGLEWVGRIRSKYNNYATYYADSVKDRFTISRDDSKNSLYLQMNSLKTEDTAVYYCVRHGNFGNSYVSWFAYWGQGTLVTVSS VL 2: QAVVTQEPSLTVSPGGTVTLTCRSSTGAVTTSNYANWVQEKPGQAPRGLIGGTNKRAPWTPARFSGSLLGGKAALTITGAQAEDEAEYYCVLWYSNLWVFGGGTKLTVL	1.04	29	35	0.77	1.75	57	52	0.52	0.37
h29A11-CD3 (bispecific antibody, V domains shown) VH 1: QVQLVQSGSELKKPGASVKVSCKASGYIFTNFGMNWVREAPGQGLEWMGWINTYTGEQIYADDFKGRFAFSLDTSASTAYLQISSLKAEDTAVYFCARGEIYYGYDVGFVYWGQGTLVTVSS VL 1: DIVLTQSPASLAVSPGQRATITCRASKSVSTSGYSYMHWYQKKPGQPPKLLIYLASNLESGVPARFSGSGSGTDFTLTINPVEANDTANYYCQHSRELPWTFGQGTKVEIK VH 2: EVQLVESGGGLVQPGGSLRLSCAASGFTFNTYAMNWVRKAPGKGLEWVGRIRSKYNNYATYYADSVKDRFTISRDDSKNSLYLQMNSLKTEDTAVYYCVRHGNFGNSYVSWFAYWGQGTLVTVSS VL 2: QAVVTQEPSLTVSPGGTVTLTCRSSTGAVTTSNYANWVQEKPGQAPRGLIGGTNKRAPWTPARFSGSLLGGKAALTITGAQAEDEAEYYCVLWYSNLWVFGGGTKLTVL	0.69	33	36	0.45	3.85	47	58	0.37	3.39
h15H10-CD3 (bispecific antibody, V domains shown) VH 1: QVQLVQSGSELKKPGASVKVSCKASGYTFTNFGMNWVREAPGQGLEWMGWINTYTGDLIYGDDFKGRFAFSLDTSASTAYLQISSLKAEDTAVYFCARGEIYYGYDVGFAYWGQGTLVTVSS VL 1: DIVLTQSPASLAVSPGQRATITCRASKSVSTSGYSYMHWYQKKPGQPPKLLIYLASNLESGVPARFSGSGSGTDFTLTINPVEANDTANYYCQHSRELPWTFGQGTKVEIK VH 2: EVQLVESGGGLVQPGGSLRLSCAASGFTFNTYAMNWVRKAPGKGLEWVGRIRSKYNNYATYYADSVKDRFTISRDDSKNSLYLQMNSLKTEDTAVYYCVRHGNFGNSYVSWFAYWGQGTLVTVSS VL 2: QAVVTQEPSLTVSPGGTVTLTCRSSTGAVTTSNYANWVQEKPGQAPRGLIGGTNKRAPWTPARFSGSLLGGKAALTITGAQAEDEAEYYCVLWYSNLWVFGGGTKLTVL	1.83	36	41	3.85	2.64	58	62	3.39	0.94
h34G2-CD3 (bispecific antibody, V domains shown) VH 1: QVQLVQSGSELKKPGASVKVSCKASGYTFTNYGMNWVREAPGQGLEWMGWINTYTGERIYADDFKGRFAFSLDTSASTAYLQISSLKAEDTAVYFCARGEIYYGYDVGFVYWGQGTLVTVSS VL 1: DIVLTQSPASLAVSPGQRATITCRASKSVSTSGYSYMHWYQKKPGQPPKLLIYLASNLESGVPARFSGSGSGTDFTLTINPVEANDTANYYCQHSRELPWTFGQGTKVEIK VH 2: EVQLVESGGGLVQPGGSLRLSCAASGFTFNTYAMNWVRKAPGKGLEWVGRIRSKYNNYATYYADSVKDRFTISRDDSKNSLYLQMNSLKTEDTAVYYCVRHGNFGNSYVSWFAYWGQGTLVTVSS VL 2: QAVVTQEPSLTVSPGGTVTLTCRSSTGAVTTSNYANWVQEKPGQAPRGLIGGTNKRAPWTPARFSGSLLGGKAALTITGAQAEDEAEYYCVLWYSNLWVFGGGTKLTVL	1.02	27	33	1.18	1.28	42	55	0.68	0.57
